{
  "source": "patent US20240117030A1",
  "about": "(Pfizer, published 2024)",
  "key": {"recombinant human IL-4 [1]": {"molecular_target": "T1, recombinant human IL-4 (human, UniProt P05112 25-153)", "T1 sequence (looked up)": "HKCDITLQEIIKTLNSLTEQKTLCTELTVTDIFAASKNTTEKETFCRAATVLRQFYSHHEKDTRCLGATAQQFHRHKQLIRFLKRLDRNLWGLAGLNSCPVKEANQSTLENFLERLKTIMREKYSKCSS", "assay": "cell-based or functional assay"}, "recombinant human IL-13 [2]": {"molecular_target": "T2, recombinant human IL-13 (human, UniProt P35225 35-146)", "T2 sequence (P35225 35-146 limits assumed)": "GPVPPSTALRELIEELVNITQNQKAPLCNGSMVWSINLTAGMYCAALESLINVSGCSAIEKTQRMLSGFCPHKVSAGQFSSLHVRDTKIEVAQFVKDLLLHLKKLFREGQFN", "assay": "cell-based or functional assay"}, "recombinant human IL-33 [3]": {"molecular_target": "T3, recombinant human IL-33 (human, UniProt O95760 112-270, limits assumed)", "T3 sequence (looked up)": "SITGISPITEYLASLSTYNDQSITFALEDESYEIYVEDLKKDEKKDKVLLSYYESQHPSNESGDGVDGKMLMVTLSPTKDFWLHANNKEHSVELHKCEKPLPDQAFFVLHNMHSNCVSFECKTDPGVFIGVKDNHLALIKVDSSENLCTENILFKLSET", "assay": "cell-based or functional assay"}, "recombinant human IL-4 [4]": {"molecular_target": "T1, recombinant human IL-4", "assay": "cell-based or functional assay", "remark": "listed apart in the source"}, "recombinant human IL-4 [5]": {"molecular_target": "T1, recombinant human IL-4", "assay": "cell-based or functional assay", "remark": "listed apart in the source"}, "[6]": {"molecular_target": "T4, recombinant cynomolgus monkey IL-4 (cynomolgus monkey, UniProt P79339 25-153)", "T4 sequence (looked up)": "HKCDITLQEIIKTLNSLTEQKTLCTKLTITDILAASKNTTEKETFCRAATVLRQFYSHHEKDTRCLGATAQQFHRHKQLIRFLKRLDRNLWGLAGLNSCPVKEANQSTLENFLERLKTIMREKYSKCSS", "assay": "cell-based or functional assay"}, "recombinant human IL-4 [7]": {"molecular_target": "T1, recombinant human IL-4", "assay": "cell-based or functional assay", "remark": "listed apart in the source"}, "recombinant human IL-13 [8]": {"molecular_target": "T2, recombinant human IL-13", "assay": "cell-based or functional assay", "remark": "listed apart in the source"}, "recombinant human IL-13 [9]": {"molecular_target": "T2, recombinant human IL-13", "assay": "cell-based or functional assay", "remark": "listed apart in the source"}, "[10]": {"molecular_target": "T5, recombinant cynomolgus monkey IL-13 (cynomolgus monkey, UniProt Q0PW92 19-132)", "T5 sequence (Q0PW92 entry or part of it limits assumed)": "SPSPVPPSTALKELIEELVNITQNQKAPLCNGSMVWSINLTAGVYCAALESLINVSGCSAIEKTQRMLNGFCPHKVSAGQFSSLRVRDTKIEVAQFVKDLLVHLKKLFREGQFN", "assay": "cell-based or functional assay"}, "recombinant human IL-13 [11]": {"molecular_target": "T2, recombinant human IL-13", "assay": "cell-based or functional assay", "remark": "listed apart in the source"}, "recombinant human IL-33 [12]": {"molecular_target": "T3, recombinant human IL-33", "assay": "cell-based or functional assay", "remark": "listed apart in the source"}, "IL-33 mm2": {"molecular_target": "T6, IL-33 mm2 (human, UniProt O95760 112-270, limits assumed)", "T6 sequence (looked up)": "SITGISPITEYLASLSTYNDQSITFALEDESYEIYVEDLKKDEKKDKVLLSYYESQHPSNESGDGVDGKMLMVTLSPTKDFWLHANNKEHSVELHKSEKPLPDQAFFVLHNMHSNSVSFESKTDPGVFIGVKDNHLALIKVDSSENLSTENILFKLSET", "assay": "cell-based or functional assay"}, "recombinant human IL-4 [13]": {"molecular_target": "T1, recombinant human IL-4", "assay": "KinExA, fixed antigen format", "protocol": "(§1) Samples were prepared in PBS containing 0.1% sodium azide and 1.0 mg/ml BSA. The fixed antigen assay method was used to determine binding affinity. […] Each trispecific and IL-4 cytokine were equilibrated for at least 72 hours at room temperature, then passed through a flow cell containing Polymethylmethacrylate (PMMA) beads coated with anti-hIL-4 Ab-0002 (Pfizer) that contains the same IL-4 binding domain as the trispecifics. […] Data analysis was performed with KinExA Pro software version 4.3.11 (Sapidyne). […] The ‘drift correction’ fitting option was used when responses varied between replicate injections. Two curves were obtained in independent experiments and analyzed using the ‘n-curve analysis’ tool to obtain global best fit values for the KD and active concentration of IL-4 cytokine. The software reports each best fit value along with a 95% confidence interval."}, "[14]": {"molecular_target": "T4, recombinant cynomolgus monkey IL-4", "assay": "KinExA, fixed antigen format", "protocol": "as §1"}, "recombinant human IL-13 [15]": {"molecular_target": "T2, recombinant human IL-13", "assay": "KinExA, fixed antigen format", "protocol": "(§2) Samples were prepared in PBS containing 0.1% sodium azide and 1.0 mg/ml BSA. The fixed antigen assay method was used to determine binding affinity. […] Data analysis was performed with KinExA Pro software version 4.3.11 (Sapidyne). […] The ‘drift correction’ fitting option was used when responses varied between replicate injections. Two curves were obtained in independent experiments and analyzed using the ‘n-curve analysis’ tool to obtain global best fit values for the KD and active concentration of IL-13 cytokine. The software reports each best fit value along with a 95% confidence interval."}, "[16]": {"molecular_target": "T5, recombinant cynomolgus monkey IL-13", "assay": "KinExA, fixed antigen format", "protocol": "as §2"}},
  "note": "Like-named read-outs stand apart in the source and are kept apart here.",
  "data": [
    {"binder": "IL13433-1258 (other, Trispecific Tri-Fab-Fc, dual cell, EE/RR, LS; Chains in order: SFab HC(3), DFab LC(1)-HC(2), SFab LC(3), DFab LC(2), modified Fd(1)) heavy: EVQLVESGGGLVQPGGSLRLSCAASGFTFSSYWMYWVRQAPGKGLEWVAAITPNAGEDYYPESVKGRFTISRDNAKNSLYLQMNSLRAEDTAVYYCARGQYYYTKYSLGYWGQGTLVTVSSASTKGPSVFPLAPSSKSTSGGTAALGCLVKDYFPEPVTVSWNSGALTSGVHTFPAVLQSSGLYSLSSVVTVPSSSLGTQTYICNVNHKPSNTKVDKKVEPKSCRKTHTCPPCPAPEAAGAPSVFLFPPKPKDTLMISRTPEVTCVVVDVSHEDPEVKFNWYVDGVEVHNAKTKPREEQYNSTYRVVSVLTVLHQDWLNGKEYKCKVSNKALPAPIEKTISKAKGQPREPQVYTLPPSREEMTKNQVSLTCLVKGFYPSDIAVEWESNGQPENNYKTTPPVLDSDGSFFLYSRLTVDKSRWQQGNVFSCSVLHEALHSHYTQKSLSLSPGK chain 1: DIQMTQSPSSLSASVGDRVTITCKASESVDHFGWSLVHWYQQKPGKAPKLLIYRASNLESGVPSRFSGSGSGTDFTLTISSLQPEDFATYYCQQSNEDPWTFGGGTKVEIKRTVAAPSVFIFPPSDEQLKSGTASVVCLLNNFYPREAKVQWKVDNALQSGNSQESVTEQDSKDSTYSLSSTLTLSKADYEKHKVYACEVTHQGLSSPVTKSFNRGECGGGGSEVTLRESGPALVKPTQTLTLTCTFSGFSLSNFGEGLSWIRQPPGKGLEWLAHIYWDDDKRYNPSLKSRLTISKDTSRNQVVLTMTNMDPVDTATYYCARRETVFYWYFDVWGQGTTVTVSSASTKGPSVFPLAPSSKSTSGGTAALGCLVKDYFPEPVTVSWNSGALTSGVHTFPAVLQSSGLYSLSSVVTVPSSSLGTQTYICNVNHKPSNTKVDKKVEPKSCEKTHTCPPCPAPEAAGAPSVFLFPPKPKDTLMISRTPEVTCVVVDVSHEDPEVKFNWYVDGVEVHNAKTKPREEQYNSTYRVVSVLTVLHQDWLNGKEYKCKVSNKALPAPIEKTISKAKGQPREPQVYTLPPSREEMTKNQVSLTCEVKGFYPSDIAVEWESNGQPENNYKTTPPVLDSDGSFFLYSKLTVDKSRWQQGNVFSCSVLHEALHSHYTQKSLSLSPGK light 1: DIQMTQSPSSLSASVGDRVTITCRASQPIHNHLDWYQQKPGKAPKLLIYFGKNLQEGVPSRFSGSGSGTDFTLTISSLQPEDFATYYCFQYKKGWSFGGGTKVEIKRTVAAPSVFIFPPSDEQLKSGTASVVCLLNNFYPREAKVQWKVDNALQSGNSQESVTEQDSKDSTYSLSSTLTLSKADYEKHKVYACEVTHQGLSSPVTKSFNRGEC light 2: DIQMTQSPSSLSASVGDRVTITCRASQSVDEEGDSYMNWYQQKPGKAPKLLIYAASNLESGVPSRFSGSGSGTDFTLTISSLQPEDFATYYCQQSNKDPPTFGGGTKVEIKRTVAAPSVFIFPPSDEQLKSGTASVVCLLNNFYPREAKVQWKVDNALQSGNSQESVTEQDSKDSTYSLSSTLTLSKADYEKHKVYACEVTHQGLSSPVTKSFNRGEC chain 2: EVQLVESGGGLVQPGGSLRLSCAASGFTFSSYAMSWVRQAPGKGLEWVASISSGDTTYYPDSVKGRFTISRDNAKNSLYLQMNSLRAEDTAVYYCARNEGYYFGLTLWGQGTLVTVSSASTKGPSVFPLAPSSKSTSGGTAALGCLVKDYFPEPVTVSWNSGALTSGVHTFPAVLQSSGLYSLSSVVTVPSSSLGTQTYICNVNHKPSNTKVDKKVEPKSC", "values": [
      {"measurement": "IL-4 Induced CD23 Expression, potency of cytokine neutralization", "setting": "recombinant human IL-4 [1]", "result": 0.013, "unit": "nM"},
      {"measurement": "IL-13 Induced CD23 Expression, potency of cytokine neutralization", "setting": "recombinant human IL-13 [2]", "result": 0.00935, "unit": "nM"},
      {"measurement": "IL-33 WT Activation of SEAP Reporter Cells, potency of cytokine neutralization", "setting": "recombinant human IL-33 [3]", "result": 0.013, "unit": "nM"},
      {"measurement": "IC50 (median), IL-4 induced CD23 expression on human monocytes", "setting": "recombinant human IL-4 [4]", "result": 0.01, "unit": "nM"},
      {"measurement": "IC50 (median), CD23 expression, Human Whole Blood", "setting": "recombinant human IL-4 [5]", "result": 0.0232, "unit": "nM"},
      {"measurement": "IC50 (median), CD23 expression, Peripheral Blood Monocytes", "setting": "recombinant human IL-4 [5]", "result": 0.01, "unit": "nM"},
      {"measurement": "IC50 (median), CD23 expression, Human Whole Blood", "setting": "[6]", "result": 0.0321, "unit": "nM"},
      {"measurement": "IC50 (median), CD23 expression, Peripheral Blood Monocytes", "setting": "[6]", "result": 0.0136, "unit": "nM"},
      {"measurement": "IC50 (median), IL-4 induced CD23 expression on human monocytes", "setting": "recombinant human IL-4 [7]", "result": 0.01, "unit": "nM"},
      {"measurement": "IC50 (median), IL-13 induced CD23 expression on human monocytes", "setting": "recombinant human IL-13 [8]", "result": 0.0117, "unit": "nM"},
      {"measurement": "IC50 (median), CD23 expression, Human Whole Blood", "setting": "recombinant human IL-13 [9]", "result": 0.0161, "unit": "nM"},
      {"measurement": "IC50 (median), CD23 expression, Peripheral Blood Monocytes", "setting": "recombinant human IL-13 [9]", "result": 0.0117, "unit": "nM"},
      {"measurement": "IC50 (median), CD23 expression, Human Whole Blood", "setting": "[10]", "result": 0.0505, "unit": "nM"},
      {"measurement": "IC50 (median), CD23 expression, Peripheral Blood Monocytes", "setting": "[10]", "result": 0.0528, "unit": "nM"},
      {"measurement": "IC50 (median), IL-13 induced CD23 expression on human monocytes", "setting": "recombinant human IL-13 [11]", "result": 0.0117, "unit": "nM"},
      {"measurement": "IC50 (mean), HEK-Blue IL-33 SEAP", "setting": "recombinant human IL-33 [12]", "result": 0.0134, "unit": "nM"},
      {"measurement": "IC50 (mean), IFNg Whole Blood (IL-12 plus IL-33 mm2-Cys)", "setting": "IL-33 mm2", "result": 0.0125, "unit": "nM"},
      {"measurement": "Kd", "setting": "recombinant human IL-4 [13]", "result": 0.000477, "unit": "nM"},
      {"measurement": "Kd", "setting": "[14]", "result": 0.00296, "unit": "nM"},
      {"measurement": "Kd", "setting": "recombinant human IL-13 [15]", "result": 0.000612, "unit": "nM"},
      {"measurement": "Kd", "setting": "[16]", "result": 0.000866, "unit": "nM"}
    ]}
  ]
}
